The record followed here is patent US20090075342.

The data set has as its system IgE (full length human IgE, h-IgE) (Homo sapiens), P01854-1. Put plainly: filter. The settings on record: 2'-deoxy at 6, 8, 9, 16, 18, 19, 20, 21, deoxyinosine at 16, 18, 20 (written as G), T24 = 3' inverted dT], dot-blot, DPBS with Mg and Ca, 0.1 mg/mL BSA, room temperature, 30 min.

IgE (full length human IgE, h-IgE) (Homo sapiens), P01854-1, sequence (P01854 other isoform, or with tags, fused parts or gaps): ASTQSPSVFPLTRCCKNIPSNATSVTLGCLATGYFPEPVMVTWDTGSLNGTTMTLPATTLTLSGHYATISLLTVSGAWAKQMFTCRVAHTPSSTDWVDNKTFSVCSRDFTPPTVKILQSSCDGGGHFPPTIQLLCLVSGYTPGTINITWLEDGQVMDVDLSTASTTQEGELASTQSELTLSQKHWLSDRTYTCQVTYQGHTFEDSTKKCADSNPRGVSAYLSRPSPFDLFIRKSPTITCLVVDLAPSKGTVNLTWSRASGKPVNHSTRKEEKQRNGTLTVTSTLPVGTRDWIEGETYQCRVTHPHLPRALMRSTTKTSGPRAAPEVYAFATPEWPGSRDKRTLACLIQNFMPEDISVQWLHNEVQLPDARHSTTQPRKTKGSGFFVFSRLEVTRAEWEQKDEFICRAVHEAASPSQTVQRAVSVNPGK

Sequence AGCCUGGGGACCCAUGGGGGGCU [ARC1666] displayed a Kd (2'-OMe at A1 G2 C3 C4 U5 G7 A10 C11 C12 C13 A14 U15 G17 C22 U23, 2'-deoxy at G6 G8 G9 I16 I18 G19 I20 G21, n = deoxyinosine, PS between 8-9, 15-16, 16-17, 18-19, 20-21, 3' 3T cap (inverted dT) [2'-OMe at 1-5, 7, 10-15, 17, 22, 23) of 0.035 nM. Regarding AGCCUGGGGACCCAUGGGGGGCU [ARC2982], the Kd (as ARC1666 (2'-OMe/2'-deoxy/deoxyinosine, 3' 3T cap) with PS between 8-9, 15-16, 16-17, 17-18, 18-19, 20-21 [2'-OMe at 1-5, 7, 10-15, 17, 22, 23, PS between 8-9, 15-16, 16-17, 17-18, 18-19, 20-21) is 0.03 nM. This counts as picomolar.

Sequence AGCCUGGGGACCCAUGGGGGGCU [ARC2983] returned a Kd (as ARC1666 (2'-OMe/2'-deoxy/deoxyinosine, 3' 3T cap) with PS between 8-9, 15-16, 16-17, 18-19, 19-20, 20-21 [2'-OMe at 1-5, 7, 10-15, 17, 22, 23, PS between 8-9, 15-16, 16-17, 18-19, 19-20, 20-21) of 0.02 nM. Consider AGCCUGGGGACCCAUGGGGGGCU [ARC3901], for which the dissociation constant Kd (as ARC1666 (2'-OMe/2'-deoxy/deoxyinosine, 3' 3T cap) with PS between 8-9, 15-16, 16-17, 17-18, 18-19, 19-20, 20-21 [2'-OMe at 1-5, 7, 10-15, 17, 22, 23, PS between 8-9, 15-16, 16-17, 17-18, 18-19, 19-20, 20-21) was determined as 0.13 nM.
